Experiments:
purified protein [1] = substrate: CC(C)=CCC/C(C)=C/CC/C(C)=C/CO[P@@](=O)(O)OP(=O)(O)O; assay: purified protein; type: biochemical, Homo sapiens; conditions: 20 μM ^14C-IPP, 0.1 μM protein, Tris-HCl pH 7.5, 150 mM NaCl, 20 mM β-mercaptoethanol, 0.1% Triton X-100, 30 °C, homodimer without NgBR
purified protein [2] = substrate: C=C(C)CCO[P@@](=O)(O)OP(=O)(O)O; assay: purified protein; conditions: 10 μM FPP, 0.5 μM protein, labelled compound (^14C), Tris-HCl pH 7.5, 150 mM NaCl, 20 mM β-mercaptoethanol, 0.1% Triton X-100, 30 °C, homodimer without NgBR
[3] = target: the molecule itself; assay: SEC-MALS; Superdex-200 increase 10/300 GL; Tris-HCl pH 7.5, 150 mM NaCl, 20 mM beta-mercaptoethanol, 0.02% Triton X-100; sample 2 mg/mL, 50 uL

B1: human dehydrodolichyl diphosphate synthase (DHDDS), full-length homodimer (Homo sapiens) (protein)
chain: MSWIKEGELSLWERFCANIIKAGPMPKHIAFIMDGNRRYAKKCQVERQEGHSQGFNKLAETLRWCLNLGILEVTVYAFSIENFKRSKSEVDGLMDLARQKFSRLMEEKEKLQKHGVCIRVLGDLHLLPLDLQELIAQAVQATKNYNKCFLNVCFAYTSRHEISNAVREMAWGVEQGLLDPSDISESLLDKCLYTNRSPHPDILIRTSGEVRLSDFLLWQTSHSCLVFQPVLWPEYTFWNLFEAILQFQMNHSVLQKARDMYAEERKRQQLERDQATVTEQLLREGLQASGDAQLRRTRLHKLSARREERVQGFLQALELKRADWLARLGTASA
notes: full-length; expressed in E. coli T7 express from pET-32b as thioredoxin-6xHis fusion, tag and fusion removed by TEV protease; without NgBR
With B1 the Km (purified protein [1]) was 0.45 ± 0.1 µM, the kcat (purified protein [1]) was 0.0011 ± 0.0001 s⁻¹ and the Km (purified protein [2]) was 9.3 ± 2.8 µM. It also gave a kcat (purified protein [2]) of 0.0011 ± 0.0001 s⁻¹.

B2: Dehydrodolichyl diphosphate synthase (DHDDS), full-length human (enzyme, UniProt Q86SQ9 1-333, looked up)
chain: B1 chain
notes: Dehydrodolichyl diphosphate synthase (DHDDS), human, UniProt Q86SQ9, full length; synthesized gene cloned into pET-32b between NdeI and BamHI; Expressed as a TRX fusion with a 6xHis-tag and a TEV site; the tag and the fusion were removed by TEV protease; also called hDHDDS; human DHDDS; source: E. coli T7 express, purified (TALON-Superflow, TEV cleavage, second TALON-Superflow, Superdex-200 SEC)
In the case of B2, the “stoichiometry N” value [3] is reported as 2.
